Data taken from article PMC12187939.

Assays:
[1] = molecular target: p300, A549 nuclear extract (UniProt Q09472); test: FLAG IP/MS; settings: nuclear fractions from A549 cells; four individual replicates; read off a plot
[2] = molecular target: CBP, A549 nuclear extract (UniProt Q92793); test: FLAG IP/MS; settings: nuclear fractions from A549 cells; four individual replicates; read off a plot
Sequence of UniProt Q92793 (Q92793 whole entry): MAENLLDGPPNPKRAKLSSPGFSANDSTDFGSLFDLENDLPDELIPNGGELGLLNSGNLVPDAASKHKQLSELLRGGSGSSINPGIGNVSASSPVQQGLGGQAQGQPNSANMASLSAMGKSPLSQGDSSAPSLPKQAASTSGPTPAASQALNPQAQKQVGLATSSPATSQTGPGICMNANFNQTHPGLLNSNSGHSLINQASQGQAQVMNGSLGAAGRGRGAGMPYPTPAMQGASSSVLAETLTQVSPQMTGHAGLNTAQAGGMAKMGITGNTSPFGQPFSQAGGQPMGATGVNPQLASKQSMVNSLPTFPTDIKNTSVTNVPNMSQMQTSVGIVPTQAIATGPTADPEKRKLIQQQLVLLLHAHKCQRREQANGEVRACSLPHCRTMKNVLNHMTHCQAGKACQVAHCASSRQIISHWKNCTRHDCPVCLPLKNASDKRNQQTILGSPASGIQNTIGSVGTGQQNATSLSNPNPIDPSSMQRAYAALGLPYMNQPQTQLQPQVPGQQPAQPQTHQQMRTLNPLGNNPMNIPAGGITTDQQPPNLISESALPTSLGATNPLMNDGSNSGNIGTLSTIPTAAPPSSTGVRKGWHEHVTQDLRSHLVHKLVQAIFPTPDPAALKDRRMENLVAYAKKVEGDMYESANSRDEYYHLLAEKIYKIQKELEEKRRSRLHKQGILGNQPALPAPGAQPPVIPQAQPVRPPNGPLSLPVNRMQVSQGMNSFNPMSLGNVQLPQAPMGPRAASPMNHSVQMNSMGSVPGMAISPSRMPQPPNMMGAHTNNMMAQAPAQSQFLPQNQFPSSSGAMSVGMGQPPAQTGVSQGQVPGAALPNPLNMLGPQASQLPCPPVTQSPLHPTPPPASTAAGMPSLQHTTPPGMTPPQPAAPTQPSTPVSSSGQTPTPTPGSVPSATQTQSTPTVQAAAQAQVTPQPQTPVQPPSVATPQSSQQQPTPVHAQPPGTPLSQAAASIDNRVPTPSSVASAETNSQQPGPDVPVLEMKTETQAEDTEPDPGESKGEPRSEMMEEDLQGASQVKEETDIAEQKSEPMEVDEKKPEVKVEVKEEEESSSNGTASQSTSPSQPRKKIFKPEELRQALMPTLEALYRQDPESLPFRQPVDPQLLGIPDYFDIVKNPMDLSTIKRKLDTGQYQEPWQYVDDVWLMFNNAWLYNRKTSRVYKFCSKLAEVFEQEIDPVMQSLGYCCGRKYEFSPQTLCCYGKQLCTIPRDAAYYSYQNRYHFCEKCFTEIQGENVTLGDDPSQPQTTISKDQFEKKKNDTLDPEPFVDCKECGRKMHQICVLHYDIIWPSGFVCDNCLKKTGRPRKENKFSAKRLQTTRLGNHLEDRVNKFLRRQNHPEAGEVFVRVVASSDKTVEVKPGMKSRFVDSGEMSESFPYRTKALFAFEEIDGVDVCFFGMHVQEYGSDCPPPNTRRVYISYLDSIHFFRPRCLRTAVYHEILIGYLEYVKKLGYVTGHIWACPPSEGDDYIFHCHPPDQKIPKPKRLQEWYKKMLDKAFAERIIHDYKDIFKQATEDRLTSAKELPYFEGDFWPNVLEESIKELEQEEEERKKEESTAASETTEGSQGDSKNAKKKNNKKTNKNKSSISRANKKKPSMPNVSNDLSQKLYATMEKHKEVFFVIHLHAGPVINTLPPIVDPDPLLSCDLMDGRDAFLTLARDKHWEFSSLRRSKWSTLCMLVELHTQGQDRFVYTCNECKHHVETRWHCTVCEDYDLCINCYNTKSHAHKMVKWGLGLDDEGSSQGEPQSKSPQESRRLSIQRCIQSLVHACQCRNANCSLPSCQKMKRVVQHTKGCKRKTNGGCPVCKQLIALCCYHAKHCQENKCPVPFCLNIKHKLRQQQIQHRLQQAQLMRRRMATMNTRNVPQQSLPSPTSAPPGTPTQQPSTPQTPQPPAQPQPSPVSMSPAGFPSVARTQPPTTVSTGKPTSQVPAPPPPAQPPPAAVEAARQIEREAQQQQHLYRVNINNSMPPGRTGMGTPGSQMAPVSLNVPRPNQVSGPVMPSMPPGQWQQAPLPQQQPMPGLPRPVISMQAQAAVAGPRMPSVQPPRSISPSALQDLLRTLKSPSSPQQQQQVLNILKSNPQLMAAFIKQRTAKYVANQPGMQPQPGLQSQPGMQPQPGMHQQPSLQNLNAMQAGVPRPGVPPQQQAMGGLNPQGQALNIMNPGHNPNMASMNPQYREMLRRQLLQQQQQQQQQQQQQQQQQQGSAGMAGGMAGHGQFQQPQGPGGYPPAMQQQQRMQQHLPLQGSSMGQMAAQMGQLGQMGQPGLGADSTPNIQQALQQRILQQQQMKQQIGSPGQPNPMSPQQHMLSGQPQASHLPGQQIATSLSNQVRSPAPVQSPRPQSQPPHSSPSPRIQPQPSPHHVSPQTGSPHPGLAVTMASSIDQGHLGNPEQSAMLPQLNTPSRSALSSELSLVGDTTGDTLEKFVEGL

Sequence of UniProt Q09472 (Q09472 whole entry): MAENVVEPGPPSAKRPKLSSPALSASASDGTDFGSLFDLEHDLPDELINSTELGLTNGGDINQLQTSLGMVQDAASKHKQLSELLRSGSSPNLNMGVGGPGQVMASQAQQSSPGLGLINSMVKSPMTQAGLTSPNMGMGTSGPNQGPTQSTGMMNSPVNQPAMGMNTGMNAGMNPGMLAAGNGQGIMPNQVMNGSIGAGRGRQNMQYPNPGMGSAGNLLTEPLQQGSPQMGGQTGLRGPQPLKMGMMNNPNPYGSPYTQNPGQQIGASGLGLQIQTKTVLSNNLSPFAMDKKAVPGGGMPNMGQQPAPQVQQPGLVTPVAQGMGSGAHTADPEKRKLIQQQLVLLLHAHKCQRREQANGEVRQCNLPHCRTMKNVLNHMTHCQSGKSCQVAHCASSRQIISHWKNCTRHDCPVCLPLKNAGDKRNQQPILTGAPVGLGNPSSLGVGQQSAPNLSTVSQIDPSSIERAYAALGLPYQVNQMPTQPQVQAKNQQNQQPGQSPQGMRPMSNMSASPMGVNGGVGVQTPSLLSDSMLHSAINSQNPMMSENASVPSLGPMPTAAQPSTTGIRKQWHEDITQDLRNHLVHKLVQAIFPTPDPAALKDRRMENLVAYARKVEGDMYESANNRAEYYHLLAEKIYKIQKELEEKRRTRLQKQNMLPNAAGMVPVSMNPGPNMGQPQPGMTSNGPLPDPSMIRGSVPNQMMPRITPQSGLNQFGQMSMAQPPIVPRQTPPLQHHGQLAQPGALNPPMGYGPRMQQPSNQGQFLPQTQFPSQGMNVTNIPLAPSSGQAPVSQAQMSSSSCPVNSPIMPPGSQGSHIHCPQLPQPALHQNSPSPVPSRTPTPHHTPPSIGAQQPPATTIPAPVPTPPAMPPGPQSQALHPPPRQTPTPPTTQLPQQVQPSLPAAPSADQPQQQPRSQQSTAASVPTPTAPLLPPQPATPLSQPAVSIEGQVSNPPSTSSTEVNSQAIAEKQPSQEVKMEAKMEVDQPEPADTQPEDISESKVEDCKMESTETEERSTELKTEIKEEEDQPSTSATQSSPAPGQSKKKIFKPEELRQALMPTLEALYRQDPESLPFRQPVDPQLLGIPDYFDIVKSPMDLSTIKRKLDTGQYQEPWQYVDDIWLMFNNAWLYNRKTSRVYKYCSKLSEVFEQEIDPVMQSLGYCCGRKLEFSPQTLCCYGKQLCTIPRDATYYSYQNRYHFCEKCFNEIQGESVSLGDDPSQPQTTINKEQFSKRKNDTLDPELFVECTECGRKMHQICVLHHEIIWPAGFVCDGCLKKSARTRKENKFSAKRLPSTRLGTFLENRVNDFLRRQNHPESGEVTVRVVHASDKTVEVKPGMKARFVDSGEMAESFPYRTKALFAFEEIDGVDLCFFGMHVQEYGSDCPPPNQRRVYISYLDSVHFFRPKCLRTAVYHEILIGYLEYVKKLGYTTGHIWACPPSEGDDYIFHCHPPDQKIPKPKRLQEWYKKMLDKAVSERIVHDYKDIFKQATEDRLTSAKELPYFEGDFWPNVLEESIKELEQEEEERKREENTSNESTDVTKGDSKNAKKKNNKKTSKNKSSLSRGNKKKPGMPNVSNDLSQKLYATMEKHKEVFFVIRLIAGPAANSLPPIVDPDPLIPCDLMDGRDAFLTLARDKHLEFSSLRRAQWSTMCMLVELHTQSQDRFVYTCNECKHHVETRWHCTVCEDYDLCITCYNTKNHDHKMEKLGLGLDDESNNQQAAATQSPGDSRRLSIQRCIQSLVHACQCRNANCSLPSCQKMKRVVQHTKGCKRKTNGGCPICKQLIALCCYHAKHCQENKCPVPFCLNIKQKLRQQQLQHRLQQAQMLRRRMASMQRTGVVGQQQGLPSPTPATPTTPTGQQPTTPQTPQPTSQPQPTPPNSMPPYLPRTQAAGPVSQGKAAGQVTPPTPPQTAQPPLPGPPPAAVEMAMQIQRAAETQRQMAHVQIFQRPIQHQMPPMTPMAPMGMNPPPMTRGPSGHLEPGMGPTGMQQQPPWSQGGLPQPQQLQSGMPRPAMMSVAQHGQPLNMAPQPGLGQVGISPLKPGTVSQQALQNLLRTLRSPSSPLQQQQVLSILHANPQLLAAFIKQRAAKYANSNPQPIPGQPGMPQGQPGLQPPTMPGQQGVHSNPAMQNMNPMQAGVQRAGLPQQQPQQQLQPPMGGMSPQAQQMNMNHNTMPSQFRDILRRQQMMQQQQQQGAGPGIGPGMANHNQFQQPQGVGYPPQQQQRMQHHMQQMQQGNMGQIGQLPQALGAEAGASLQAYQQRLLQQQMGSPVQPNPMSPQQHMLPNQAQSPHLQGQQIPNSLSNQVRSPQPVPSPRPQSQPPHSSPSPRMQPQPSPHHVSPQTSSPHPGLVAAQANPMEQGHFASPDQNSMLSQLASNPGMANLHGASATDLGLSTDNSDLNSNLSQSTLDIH

For “FLAG-tagged WT NRF2, stably expressed in A549 (TRE3G-driven, dox-induced) (from UniProt Q16236) Neh4: …>… (F>A; D>A; C>A; L>A); Neh5: …>… (Q>A; D>A; E>A; L>A)”, the other: log2(fold change) [1] was -3.2 and the other: log2(fold change) [2] was -3.8.
